Data published in the supplement of paper PMC12338614.
± gives the uncertainty stated by the source.

B1: library; numbered along this chain (parent)
chain: MEVVDPQQLGMFTEGELMSVGMDTFIHRIDSTEVIYQPRRKRAKLIGKYLMGDLLGEGSYGKVKEVLDSETLCRRAVKILKKKKLRRIPNGEANVKKEIQLLRRLRHKNVIQLVDVLYNEEKQKMYMVMEYCVCGMQEMLDSVPEKRFPVCQAHGYFCQLIDGLEYLHSQGIVHKDIKPGNLLLTTGGTLKISDLGVAEALHPFAADDTCRTSQGSPAFQPPEIANGLDTFSGFKVDIWSAGVTLYNITTGLYPFEGDNIYKLFENIGKGSYAIPGDCGPPLSDLLKGMLEYEPAKRFSIRQIRQHSWFRKKHPPAEAPVPIPPSPDTKDRWRSMTVVPYLEDLHGADEDEDLFDIEDDIIYTQDFTVPGQVPEEEASHNGQRRGLPKAVCMNGTEAAQLSTKSRAEGRAPNPARKACSASSKIRRLSACKQQ

Variants of: B1
Test: STK11 functional score (HeLa growth suppression), rescaled enrichment; synonymous median = 1, nonsense median = 0 (normalised score)
Conditions: with HeLa; variant type: missense
Summary of the method: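 Codon-randomised (POPCode) libraries of codon-optimised STK11 were integrated by Bxb1 at an AAVS1 landing pad in HeLa, in three regions each transfected three times. Integrants (BFP-negative, mCherry-positive) were FACS-sorted 4–5 days after electroporation and grown about two weeks; tiled gDNA amplicons were sequenced on NextSeq (~2 million reads per tile). The functional score is the wild-type-corrected post/pre-selection log ratio, rescaled to synonymous and nonsense medians, merged over codons and replicate transfections, with bootstrapped error.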

Variant	STK11 functional score
MEVVDPQQLGMFTEGELMSVGMDTFIHRIDSTEVIYQPRRKRAKLIGKYLMGDLLGEGSYGKVKEVLDSETLCRRAVKILKKKKLRRIPNGEANVKKEIQLLRRLRHKNVIQLVDVLYNEEKQKMYMVMEYCVCGMQEMLDSVPEKRFPVCQAHGYFCQLIDGLEYLHSQGIVHKDIKPGNLLLTTGGTLKISDLGVAEALHPFAADDTCRTSQGSPAFQPPEIANGLDTFSGFKVDIWSAGVTLYNITTGLYPFEGDNIYKLFENIGKGSYAIPGDCGPPLSDLLKGMLEYEPAKRFSIRQIRQHSWFRKKHPPAEAPVPIPPSPDTKDRWRSMTVVPYLEDLHGADEDEDLFDIEDDIIYTQDFTVPGQVPEEKASHNGQRRGLPKAVCMNGTEAAQLSTKSRAEGRAPNPARKACSASSKIRRLSACKQQ [E376K]	1.41 ± 0.61
MEVVDPQQLGMFTEGELMSVGMDTFIHRIDSTEVIYQPRRKRAKLIGKYLMGDLLGEGSYGKVKEVLDSETLCRRAVKILKKKKLRRIPNGEANVKKEIQLLRRLRHKNVIQLVDVLYNEEKQKMYMVMEYCVCGMQEMLDSVPEKRFPVCQAHGYFCQLIDGLEYLHSQGIVHKDIKPGNLLLTTGGTLKISDLGVAEALHPFAADDTCRTSQGSPAFQPPEIANGLDTFSGFKVDIWSAGVTLYNITTGLYPFEGDNIYKLFENIGKGSYAIPGDCGPPLSDLLKGMLEYEPAKRFSIRQIRQHSWFRKKHPPAEAPVPIPPSPDTKDRWRSMTVVPYLEDLHGADEDEDLFDIEDDIIYTQDFTVPGQVPEEHASHNGQRRGLPKAVCMNGTEAAQLSTKSRAEGRAPNPARKACSASSKIRRLSACKQQ [E376H]	0.914 ± 0.14
MEVVDPQQLGMFTEGELMSVGMDTFIHRIDSTEVIYQPRRKRAKLIGKYLMGDLLGEGSYGKVKEVLDSETLCRRAVKILKKKKLRRIPNGEANVKKEIQLLRRLRHKNVIQLVDVLYNEEKQKMYMVMEYCVCGMQEMLDSVPEKRFPVCQAHGYFCQLIDGLEYLHSQGIVHKDIKPGNLLLTTGGTLKISDLGVAEALHPFAADDTCRTSQGSPAFQPPEIANGLDTFSGFKVDIWSAGVTLYNITTGLYPFEGDNIYKLFENIGKGSYAIPGDCGPPLSDLLKGMLEYEPAKRFSIRQIRQHSWFRKKHPPAEAPVPIPPSPDTKDRWRSMTVVPYLEDLHGADEDEDLFDIEDDIIYTQDFTVPGQVPEEMASHNGQRRGLPKAVCMNGTEAAQLSTKSRAEGRAPNPARKACSASSKIRRLSACKQQ [E376M]	0.943 ± 0.45
MEVVDPQQLGMFTEGELMSVGMDTFIHRIDSTEVIYQPRRKRAKLIGKYLMGDLLGEGSYGKVKEVLDSETLCRRAVKILKKKKLRRIPNGEANVKKEIQLLRRLRHKNVIQLVDVLYNEEKQKMYMVMEYCVCGMQEMLDSVPEKRFPVCQAHGYFCQLIDGLEYLHSQGIVHKDIKPGNLLLTTGGTLKISDLGVAEALHPFAADDTCRTSQGSPAFQPPEIANGLDTFSGFKVDIWSAGVTLYNITTGLYPFEGDNIYKLFENIGKGSYAIPGDCGPPLSDLLKGMLEYEPAKRFSIRQIRQHSWFRKKHPPAEAPVPIPPSPDTKDRWRSMTVVPYLEDLHGADEDEDLFDIEDDIIYTQDFTVPGQVPEEQASHNGQRRGLPKAVCMNGTEAAQLSTKSRAEGRAPNPARKACSASSKIRRLSACKQQ [E376Q]	0.896 ± 0.46
MEVVDPQQLGMFTEGELMSVGMDTFIHRIDSTEVIYQPRRKRAKLIGKYLMGDLLGEGSYGKVKEVLDSETLCRRAVKILKKKKLRRIPNGEANVKKEIQLLRRLRHKNVIQLVDVLYNEEKQKMYMVMEYCVCGMQEMLDSVPEKRFPVCQAHGYFCQLIDGLEYLHSQGIVHKDIKPGNLLLTTGGTLKISDLGVAEALHPFAADDTCRTSQGSPAFQPPEIANGLDTFSGFKVDIWSAGVTLYNITTGLYPFEGDNIYKLFENIGKGSYAIPGDCGPPLSDLLKGMLEYEPAKRFSIRQIRQHSWFRKKHPPAEAPVPIPPSPDTKDRWRSMTVVPYLEDLHGADEDEDLFDIEDDIIYTQDFTVPGQVPEEAASHNGQRRGLPKAVCMNGTEAAQLSTKSRAEGRAPNPARKACSASSKIRRLSACKQQ [E376A]	1.4 ± 0.35
MEVVDPQQLGMFTEGELMSVGMDTFIHRIDSTEVIYQPRRKRAKLIGKYLMGDLLGEGSYGKVKEVLDSETLCRRAVKILKKKKLRRIPNGEANVKKEIQLLRRLRHKNVIQLVDVLYNEEKQKMYMVMEYCVCGMQEMLDSVPEKRFPVCQAHGYFCQLIDGLEYLHSQGIVHKDIKPGNLLLTTGGTLKISDLGVAEALHPFAADDTCRTSQGSPAFQPPEIANGLDTFSGFKVDIWSAGVTLYNITTGLYPFEGDNIYKLFENIGKGSYAIPGDCGPPLSDLLKGMLEYEPAKRFSIRQIRQHSWFRKKHPPAEAPVPIPPSPDTKDRWRSMTVVPYLEDLHGADEDEDLFDIEDDIIYTQDFTVPGQVPEWEASHNGQRRGLPKAVCMNGTEAAQLSTKSRAEGRAPNPARKACSASSKIRRLSACKQQ [E375W]	1.54 ± 0.31
MEVVDPQQLGMFTEGELMSVGMDTFIHRIDSTEVIYQPRRKRAKLIGKYLMGDLLGEGSYGKVKEVLDSETLCRRAVKILKKKKLRRIPNGEANVKKEIQLLRRLRHKNVIQLVDVLYNEEKQKMYMVMEYCVCGMQEMLDSVPEKRFPVCQAHGYFCQLIDGLEYLHSQGIVHKDIKPGNLLLTTGGTLKISDLGVAEALHPFAADDTCRTSQGSPAFQPPEIANGLDTFSGFKVDIWSAGVTLYNITTGLYPFEGDNIYKLFENIGKGSYAIPGDCGPPLSDLLKGMLEYEPAKRFSIRQIRQHSWFRKKHPPAEAPVPIPPSPDTKDRWRSMTVVPYLEDLHGADEDEDLFDIEDDIIYTQDFTVPGQVPEYEASHNGQRRGLPKAVCMNGTEAAQLSTKSRAEGRAPNPARKACSASSKIRRLSACKQQ [E375Y]	1.52 ± 0.24
